From paper PMC11784651
Each block holds one substance with its values, some of them ahead of it.

How the values were obtained:
[1] = target: Biotinylated human CD38-Avi-His (human); assay: SPR
[2] = target: CD38 (soluble, in the SEC-MALS and electron microscopy of the ISB 1442/CD38 complex) (human); assay: SEC-MALS
[3] = target: Biotinylated human CD38-Avi-His (Acrobiosystems, catalog NO: CD8-H82E7) (human); assay: SPR
[4] = target: ISB 1442, CD47 x CD38 bispecific biparatopic antibody (2 + 1 BEAT format) (human); assay: flow cytometry on cells

Kd [1]: < 0.01 nM
Substance: ISB 1442 (bispecific antibody)

stoichiometry N (ISB 1442 per CD38 (2:2 complex)) [2]: 1
fold slower dissociation at 300 RU than at 10 RU CD38 surface density [3]: 5.8 fold
Substance: ISB 1442, CD47 x CD38 bispecific biparatopic antibody (2 + 1 BEAT format) (bispecific antibody)

molar ratio CD38/antibody at IC50 (mol CD38 per mol antibody) [4]: 2.32
Substance: soluble CD38 (sCD38) (domain or fragment)
